Laboratory results published in the supplement of paper PMC10567573.

B1: PLD5 (parent)
chain: VTYMNMTAYNKGRLQSSFWIVDKQ

Variants of: B1
Assay: protein stability index of a GFP-peptide fusion (GPS, HEK-293T) (PSI 1-6); higher = more stable
Conditions: c terminus: a fixed tail appended
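Note: lentivirally expressed fusions sorted by FACS into six bins by GFP to DsRed ratio, PSI derived from sequencing read proportions per bin multiplied by bin number.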

Variant | protein stability index
VTYMNMTAYNKGRLQSSFWIHDKQ [V21H] | 1.28
VTYMNMTAYNKGRLQSSFWIKDKQ [V21K] | 2.31
VTYMNMTAYNKGRLQSSFWITDKQ [V21T] | 2.43
VTYMNMTAYNKGRLQSSFWICDKQ [V21C] | 1.38
VTYMNMTAYNKGRLQSSFWIFDKQ [V21F] | 1.43
VTYMNMTAYNKGRLQSSFWIPDKQ [V21P] | 1.85
VTYMNMTAYNKGRLQSSFWIRDKQ [V21R] | 1.7
VTYMNMTAYNKGRLQSSFWIEDKQ [V21E] | 1.5
VTYMNMTAYNKGRLQSSFWIDDKQ [V21D] | 1.96
VTYMNMTAYNKGRLQSSFWINDKQ [V21N] | 2.82
VTYMNMTAYNKGRLQSSFWIMDKQ [V21M] | 1.52
VTYMNMTAYNKGRLQSSFWIIDKQ [V21I] | 2.63
VTYMNMTAYNKGRLQSSFWIADKQ [V21A] | 2.08
VTYMNMTAYNKGRLQSSFWIQDKQ [V21Q] | 1.89
VTYMNMTAYNKGRLQSSFWISDKQ [V21S] | 1.55
VTYMNMTAYNKGRLQSKFWIVDKQ [S17K] | 2.12
VTYMNMTAYNKGRLQSMFWIVDKQ [S17M] | 4.26
VTYMNMTAYNKGRLQSPFWIVDKQ [S17P] | 2.33
VTYMNMTAYNKGRLQSYFWIVDKQ [S17Y] | 3.31
VTYMNMTAYNKGRLQSAFWIVDKQ [S17A] | 2.28
VTYMNMTAYNKGRLQSTFWIVDKQ [S17T] | 1.43
VTYMNMTAYNKGRLQSLFWIVDKQ [S17L] | 1.12
VTYMNMTAYNKGRLQSGFWIVDKQ [S17G] | 1.73
VTYMNMTAYNKGRLQSDFWIVDKQ [S17D] | 2.15

Variant | protein stability index
VTYMNMTAYNKGRLQSNFWIVDKQ [S17N] | 1.49
VTYMNMTAYNKGRLQSHFWIVDKQ [S17H] | 1.93
VTYMNMTAYNKGRLQSCFWIVDKQ [S17C] | 2.28
VTYMNMTAYNKGRLQSRFWIVDKQ [S17R] | 3.71
VTYMNMTAYNKGRLQSSFWIVDKK [Q24K] | 1.24
VTYMNMTAYNKGRLQSSFWIVDKR [Q24R] | 2.46
VTYMNMTAYNKGRLQSSFWIVDKA [Q24A] | 2.28
VTYMNMTAYNKGRLQSSFWIVDKE [Q24E] | 1.48
VTYMNMTAYNKGRLQSSFWIVDKI [Q24I] | 2.52
VTYMNMTAYNKGRLQSSFWIVDKN [Q24N] | 2.11
VTYMNMTAYNKGRLQSSFWIVDKH [Q24H] | 2.19
VTYMNMTAYNKGRLQSSFWIVDKD [Q24D] | 1.85
VTYMNMTAYNKGRLQSSFWIVDKT [Q24T] | 2.79
VTYMNMTAYNKGRLQSSFWIVDKS [Q24S] | 2.22
VTYMNMTAYNKGRLQSSFWIVDKP [Q24P] | 2.67
VTYMNMTAYNKGRLQSSFWIVDKM [Q24M] | 3.08
VTYMNMTAYNKGRLQSSFWIVDLQ [K23L] | 4.23
VTYMNMTAYNKGRLQSSFWIVDAQ [K23A] | 3.81
VTYMNMTAYNKGRLQSSFWIVDHQ [K23H] | 2.49
VTYMNMTAYNKGRLQSSFWIVDMQ [K23M] | 3.22
VTYMNMTAYNKGRLQSSFWIVDNQ [K23N] | 3.33
VTYMNMTAYNKGRLQSSFWIVDYQ [K23Y] | 2.52
VTYMNMTAYNKGRLQSSFWIVDEQ [K23E] | 3.18
VTYMNMTAYNKGRLQSSFWIVDRQ [K23R] | 2.17

Variant | protein stability index
VTYMNMTAYNKGRLQSSFWIVDTQ [K23T] | 3.52
VTYMNMTAYNKGRLQSSFWIVDQQ [K23Q] | 1.74
VTYMNMTAYNKGRLQSSFWIVDPQ [K23P] | 2.67
VTYMNMTAYNKGRLQSSFWIVDIQ [K23I] | 2.33
VTYMNMTAYNKGRLQSSFWIVDCQ [K23C] | 1.95
VTYMNMTAYNKGRLQSSFWIVDDQ [K23D] | 2.85
VTYMNMTAYNKGRLQFSFWIVDKQ [S16F] | 3.61
VTYMNMTAYNKGRLQWSFWIVDKQ [S16W] | 3.41
VTYMNMTAYNKGRLQHSFWIVDKQ [S16H] | 2.01
VTYMNMTAYNKGRLQQSFWIVDKQ [S16Q] | 2.42
VTYMNMTAYNKGRLQISFWIVDKQ [S16I] | 2.81
VTYMNMTAYNKGRLQASFWIVDKQ [S16A] | 3.62
VTYMNMTAYNKGRLQTSFWIVDKQ [S16T] | 3.01
VTYMNMTAYNKGRLQKSFWIVDKQ [S16K] | 1.63
VTYMNMTAYNKGRLQNSFWIVDKQ [S16N] | 1.21
VTYMNMTAYNKGRLQDSFWIVDKQ [S16D] | 2.08
VTYMNMTAYNKGRLQYSFWIVDKQ [S16Y] | 4.23
VTYMNMTAYNKGRLQRSFWIVDKQ [S16R] | 1.28
VTYMNMTAYNKGRLQPSFWIVDKQ [S16P] | 1.1
VTYMNMTAYNKGRLQSSFRIVDKQ [W19R] | 1.91
VTYMNMTAYNKGRLQSSFDIVDKQ [W19D] | 2.45
VTYMNMTAYNKGRLQSSFVIVDKQ [W19V] | 1.65
VTYMNMTAYNKGRLQSSFKIVDKQ [W19K] | 1.84
VTYMNMTAYNKGRLQSSFPIVDKQ [W19P] | 1.98

Variant | protein stability index
VTYMNMTAYNKGRLQSSFYIVDKQ [W19Y] | 1.91
VTYMNMTAYNKGRLQSSFAIVDKQ [W19A] | 1.8
VTYMNMTAYNKGRLQSSFGIVDKQ [W19G] | 2.01
VTYMNMTAYNKGRLQSSFCIVDKQ [W19C] | 1.49
VTYMNMTAYNKGRLQSSFEIVDKQ [W19E] | 2.04
VTYMNMTAYNKGRLQSSFQIVDKQ [W19Q] | 2.46
VTYMNMTAYNKGRLQSSFHIVDKQ [W19H] | 2.21
VTYMNMTAYNKGRLQSSFLIVDKQ [W19L] | 2
VTYMNMTAYNKGRLQSSFTIVDKQ [W19T] | 2.18
VTYMNMTAYNKGRLQSSFFIVDKQ [W19F] | 2.04
VTYMNMTAYNKGRLQSSFIIVDKQ [W19I] | 1.76
VTYMNMTAYNKGRLQSSFMIVDKQ [W19M] | 1.62
VTYMNMTAYNKGRLQSSFSIVDKQ [W19S] | 2.29
VTYMNMTAYNKGRLQSSFWIVNKQ [D22N] | 3.19
VTYMNMTAYNKGRLQSSFWIVKKQ [D22K] | 2.53
VTYMNMTAYNKGRLQSSFWIVPKQ [D22P] | 2.11
VTYMNMTAYNKGRLQSSFWIVTKQ [D22T] | 3.51
VTYMNMTAYNKGRLQSSFWIVEKQ [D22E] | 1.21
VTYMNMTAYNKGRLQSSFWIVRKQ [D22R] | 3.44
VTYMNMTAYNKGRLQSSFWIVCKQ [D22C] | 3.67
VTYMNMTAYNKGRLQSSFWIVHKQ [D22H] | 3.52
VTYMNMTAYNKGRLQSSFWIVMKQ [D22M] | 3.38
